# B1: GST-Dbf4 (1-390) (domain or fragment, S. cerevisiae (budding yeast), UniProt P32325 1-390, looked up)
# chain: MVSPTKMIIRSPLKETDTNLKHNNGIAASTTAAGHLNVFSNDNNCNNNNTTESFPKKRSLERLELQQQQHLHEKKRARIERARSIEGAVQVSKGTGLKNVEPRVTPKELLEWQTNWKKIMKRDSRIYFDITDDVEMNTYNKSKMDKRRDLLKRGFLTLGAQITQFFDTTVTIVITRRSVENIYLLKDTDILSRAKKNYMKVWSYEKAARFLKNLDVDLDHLSKTKSASLAAPTLSNLLHNEKLYGPTDRDPRTKRDDIHYFKYPHVYLYDLWQTWAPIITLEWKPQELTNLDELPYPILKIGSFGRCPFIGDRNYDESSYKRVVKRYSRDKANKKYALQLRALFQYHADTLLNTSSVNDQTKNLIFIPHTCNDSTKSFKKWMQEKAKNFE
# B2: GST-Fkh1 (natural protein, S. cerevisiae (budding yeast), UniProt P40466 1-484, looked up)
# chain: MSVTSREQKFSGKYSSYTAQDRQGLVNAVTCVLSSSSDPVAVSSDYSNSLSIAREVNAYAKIAGCDWTYYVQKLEVTIGRNTDSLNLNAVPGTVVKKNIDIDLGPAKIVSRKHAAIRFNLESGSWELQIFGRNGAKVNFRRIPTGPDSPPTVLQSGCIIDIGGVQMIFILPEQETIISDYCLNHLMPKLLSTYGTNGNNNPLLRNIIEGSTYLREQRLQEEARLQQLDHLHTPLSSSSDVNPIGDPHGDTIMMEEDEEDENYTRGGIRPNTYTSSSNNAVTNGNVPHIENPSDLSLDENRYIKPPQSYASMITQAILSTPEGSISLADIYKFISDNYAFYRFSQMAWQNSVRHNLSLNKAFEKVPKRAGQQGKGMNWKISDEVRRDFLNKWNAGKLSKIRRGASVTRQLQLHMSKFGEIPAPESSSIDPRGIKAQKVKKSLQATSSILGESAPQLQRTQLTGQISTTTSMDVTTNANVNNSSLS
# B3: Purified recombinant Fkh1 (in vitro recruitment assay) (natural protein, S. cerevisiae (budding yeast), UniProt P40466 1-484, looked up)
# chain: B2 chain
# B4: 6His-Dbf4 (656-704) (domain or fragment, S. cerevisiae (budding yeast), UniProt P32325 656-704, looked up)
# chain: KNSGYCENCRVKYESLEQHIVSEKHLSFAENDLNFEAIDSLIENLRFQI
# B5: His6-Sld3 (natural protein, S. cerevisiae (budding yeast), UniProt P53135 1-668, looked up)
# chain: METWEVIASVKEATKGLDLSLDHPLIIKSEDVPSNILQLLQQKNRRQLKHICMKSRKEYFLLEEYGPGFWVKWPYNYFNGYSLPERRTEVVTTVERERAKRETLKTWDELKFKELLHLWSEEPKGSCKLEKDKDLKLDMNPPDMKGESKINDYYSDPKEYIESKYYDALFSIHTPLAYFVKSNLVRLKNTCRTKYGSDSYKIAYQAMLQKFLLSIVQFKDRHDNRLLLEPFSSPIADEKRKNCLTKFVIQDENKNSSTIADLCVVLKSREIKLQILLLLEIIGLNDLDWNFRDFEKKYKLKLKKRSLNLTKKGLVRRRSKKKTSEKDKGIERITTSLDYCEQLDLYLDRACILDILLSSETPNPDAIEASNGTIQEHKKNILDKSKEASLVGFINYVLIPYFNKKVPHAVEFIIQKLKGPSMRPKRALKKVNDSTNVSSPNTVETYNRLSTSQRASRSSIINSVPSSPALRRVDANLFSRKSIASPTPELLNSRTNSNLNEFLESETRSLKRPSQLGRTKSDLTMNHLQKRQFSVSDLSTTRVPNSSTITLKTPFSHSTINAYKTMNNSFRRVGKRKDINETIRLHERVDSEENVQVQATPAVKKRTVTPNKKAQLQSIIESPLNFKDDDTHEGRKNTSNITSTPTNKPPENSSKRRVRRRLFAPEST
# How the values were obtained:
# [1] = target: B5; experiment: pull-down
# [2] = target: T1, Phosphatase-treated Dbf4 purified from yeast cells (S. cerevisiae (endogenous in yeast), UniProt P32325 1-704, treated with λ-phosphatase); experiment: pull-down
# T1 sequence (looked up): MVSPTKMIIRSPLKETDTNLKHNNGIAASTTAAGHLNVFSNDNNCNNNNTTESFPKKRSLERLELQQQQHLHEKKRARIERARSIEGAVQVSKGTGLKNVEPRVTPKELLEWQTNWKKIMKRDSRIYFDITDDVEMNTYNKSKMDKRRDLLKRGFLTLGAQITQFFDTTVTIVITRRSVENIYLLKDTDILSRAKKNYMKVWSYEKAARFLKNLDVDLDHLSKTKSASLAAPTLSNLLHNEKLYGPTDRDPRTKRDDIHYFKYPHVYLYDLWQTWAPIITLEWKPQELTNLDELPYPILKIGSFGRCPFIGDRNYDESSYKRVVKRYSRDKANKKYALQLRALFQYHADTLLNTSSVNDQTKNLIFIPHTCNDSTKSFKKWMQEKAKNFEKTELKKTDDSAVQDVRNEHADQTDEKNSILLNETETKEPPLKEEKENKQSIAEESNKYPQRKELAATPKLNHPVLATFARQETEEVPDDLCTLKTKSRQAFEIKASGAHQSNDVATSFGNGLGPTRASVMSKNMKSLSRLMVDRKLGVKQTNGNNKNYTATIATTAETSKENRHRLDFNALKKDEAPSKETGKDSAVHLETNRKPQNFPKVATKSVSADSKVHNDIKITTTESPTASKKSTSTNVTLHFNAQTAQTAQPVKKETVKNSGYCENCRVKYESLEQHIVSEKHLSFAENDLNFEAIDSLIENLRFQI
# [3] = target: T2, Purified recombinant Dbf4 (6His-Dbf4p, pET28a-Dbf4) (S. cerevisiae (budding yeast), UniProt P32325 1-704); experiment: in vitro origin recruitment assay on DNA beads
# T2 sequence (looked up): T1 sequence (looked up)
# [4] = target: B2; experiment: pull-down
# [5] = target: T3, GST-Dbf4 (S. cerevisiae (budding yeast), UniProt P32325 1-704); experiment: pull-down
# T3 sequence (looked up): T1 sequence (looked up)
binder,measurement,setting,value
B1,binding result,[1],binds
B2,binding result,[2],binds
B3,binding result,[3],binds
B4,binding result,[4],binds
B5,binding result,[5],binds

# Source: PMC5795786 (Genes & Development, 2017)
